Assay [1] has as its target T1, HLA-A*0201 molecule expressed on human T2 cells (human).
T1 construct: also called HLA-A2
The assay is described as follows: T2 cells (HLA-A*0201), peptide at 100 µM, anti-HLA-A2 flow cytometry. How it is done: (§1) T2 cells (5.104 cells per well) are incubated with decreasing concentrations of peptides from 100 μM to 0.1 μM (4 points: 100 μM, 10 μM, 1 μM, 0.1 μM) in serum-free medium (TexMacs) supplemented with […] of β2 Microglobulin at 37° C. for 16 hours. Cells are then washed two times and marked with the anti-HLA-A2 antibody coupled to PE (clone BB7.2, BD Pharmagen).
(§2) The relative affinity is then determined as follows: […]

Assay [2] addresses T1, HLA-A*0201 molecule expressed on human …. The assay is described as follows: T2 cells (HLA-A*0201), peptide at 1 µM, anti-HLA-A2 flow cytometry. How it is done:
as §1, §2

Assay [3] has the same target. The assay is described as follows: T2 cells (HLA-A*0201), peptide at 10 µM, anti-HLA-A2 flow cytometry. As to the method: as §1, §2
Assay [4] has the same target. The assay is described as follows: T2 cells (HLA-A*0201), peptide at 0.1 µM, anti-HLA-A2 flow cytometry. How it is done:
as §1, §2

The target is the same in assay [5]. The assay is described as follows: T2 cells (HLA-A*0201), peptide titration, anti-HLA-A2 flow cytometry. How it is done:
as §1, §2

With FLLFLTPME [CD19-H2], the “mean relative fluorescence intensity (HIV peptide = 100)” value (“mean relative fluorescence intensity” for short) in assay [1] is 7 % of HIV pol 589-597 at 100 µM; in assay [2], 3 % of HIV pol 589-597 at 100 µM; in assay [3], 7 % of HIV pol 589-597 at 100 µM.

For GLAFVPLQI [CD37-H1], the “mean relative fluorescence intensity” value in assay [4] was 2 % of HIV pol 589-597 at 100 µM; in assay [1] it was 153 % of HIV pol 589-597 at 100 µM; in assay [2], 0 % of HIV pol 589-597 at 100 µM; in assay [3] it was 27 % of HIV pol 589-597 at 100 µM. Moreover, in assay [5], the “concentration of peptide that induces 20% of HLA-A2 expression” value is 7.35 µM. Moreover, the “in vitro binding affinity (relative to HIV pol reference peptide)” value in assay [5] is 17.5 ratio to HIV pol 589-597.

For ILPGLLFGL [TNFRSF13C-B31], the “mean relative fluorescence intensity” value in assay [4] was 0 % of HIV pol 589-597 at 100 µM; in assay [1], 104 % of HIV pol 589-597 at 100 µM; in assay [2], 1.5 % of HIV pol 589-597 at 100 µM; in assay [3] it was 71.9 % of HIV pol 589-597 at 100 µM. In addition, the “concentration of peptide that induces 20% of HLA-A2 expression” value in assay [5] is 1.6 µM. In addition, the “in vitro binding affinity (relative to HIV pol reference peptide)” value in assay [5] was 0.4 ratio to HIV pol 589-597.

As for LLVGILHLV [CD19-B1], the “mean relative fluorescence intensity” value in assay [1] was 93 % of HIV pol 589-597 at 100 µM; in assay [2] it was 8 % of HIV pol 589-597 at 100 µM; in assay [3], 40 % of HIV pol 589-597 at 100 µM. The “concentration of peptide that induces 20% of HLA-A2 expression” value in assay [5] turned out to be 3.7 µM. Moreover, the “in vitro binding affinity (relative to HIV pol reference peptide)” value in assay [5] was 0.7 ratio to HIV pol 589-597.

IMNSLSLFA [MS4A1-H4]: the “mean relative fluorescence intensity” value in assay [4] is 0 % of HIV pol 589-597 at 100 µM; in assay [1], 13.4 % of HIV pol 589-597 at 100 µM; in assay [2], 0.3 % of HIV pol 589-597 at 100 µM; in assay [3], 2.6 % of HIV pol 589-597 at 100 µM.

Consider SLVGILHII [CD19-B11], for which the “mean relative fluorescence intensity” value in assay [4] was 0 % of HIV pol 589-597 at 100 µM; in assay [1] it was 108 % of HIV pol 589-597 at 100 µM; in assay [2], 5.2 % of HIV pol 589-597 at 100 µM; in assay [3], 30.5 % of HIV pol 589-597 at 100 µM. Moreover, the “concentration of peptide that induces 20% of HLA-A2 expression” value in assay [5] turned out to be 5.97 µM. For the same molecule, the “in vitro binding affinity (relative to HIV pol reference peptide)” value in assay [5] is 0.8 ratio to HIV pol 589-597.

FMPGLLFGA [TNFRSF13C-B33]: the “mean relative fluorescence intensity” value is 0 % of HIV pol 589-597 at 100 µM in assay [4], 99.6 % of HIV pol 589-597 at 100 µM in assay [1], 1.3 % of HIV pol 589-597 at 100 µM in assay [2] and 15.5 % of HIV pol 589-597 at 100 µM in assay [3]. Moreover, the “concentration of peptide that induces 20% of HLA-A2 expression” value in assay [5] was 13.2 µM. For the same molecule, the “in vitro binding affinity (relative to HIV pol reference peptide)” value in assay [5] is 3.5 ratio to HIV pol 589-597.

Regarding SLVGILHLQ [CD19-H1], the “mean relative fluorescence intensity” value in assay [4] was 1 % of HIV pol 589-597 at 100 µM; in assay [1], 0 % of HIV pol 589-597 at 100 µM; in assay [2], 0 % of HIV pol 589-597 at 100 µM; in assay [3], 1 % of HIV pol 589-597 at 100 µM.

Take YLFLGILSL [MS4A1-B5]: the “mean relative fluorescence intensity” value is 0 % of HIV pol 589-597 at 100 µM in assay [4], 0.2 % of HIV pol 589-597 at 100 µM in assay [2] and 29.8 % of HIV pol 589-597 at 100 µM in assay [3]. The “concentration of peptide that induces 20% of HLA-A2 expression” value in assay [5] stood at 6.77 µM. The “in vitro binding affinity (relative to HIV pol reference peptide)” value in assay [5] was 0.7 ratio to HIV pol 589-597.

Turning to YVFEHPELL [CD22-B11], the “mean relative fluorescence intensity” value in assay [4] is 6.4 % of HIV pol 589-597 at 100 µM; in assay [1], 141 % of HIV pol 589-597 at 100 µM; in assay [2] it was 60.5 % of HIV pol 589-597 at 100 µM; in assay [3], 124 % of HIV pol 589-597 at 100 µM. Also, the “concentration of peptide that induces 20% of HLA-A2 expression” value in assay [5] was found to be 0.2 µM. For the same molecule, in assay [5], the “in vitro binding affinity (relative to HIV pol reference peptide)” value is 0.5 ratio to HIV pol 589-597.

Consider WVFEHPETL [CD22-H1], for which the “mean relative fluorescence intensity” value was 2 % of HIV pol 589-597 at 100 µM in assay [4], 158 % of HIV pol 589-597 at 100 µM in assay [1], 10 % of HIV pol 589-597 at 100 µM in assay [2] and 71 % of HIV pol 589-597 at 100 µM in assay [3]. The “concentration of peptide that induces 20% of HLA-A2 expression” value in assay [5] was 1.97 µM. Further, in assay [5], the “in vitro binding affinity (relative to HIV pol reference peptide)” value is 5.3 ratio to HIV pol 589-597.

For PLPGLLFGA [TNFRSF13C-H3], the “mean relative fluorescence intensity” value was 0 % of HIV pol 589-597 at 100 µM in assay [4], 8.4 % of HIV pol 589-597 at 100 µM in assay [1], 0 % of HIV pol 589-597 at 100 µM in assay [2] and 0 % of HIV pol 589-597 at 100 µM in assay [3].

In the case of YLAYLIFEL [CD19-B6], the “mean relative fluorescence intensity” value in assay [4] was 0 % of HIV pol 589-597 at 100 µM; in assay [2], 5.4 % of HIV pol 589-597 at 100 µM; in assay [3] it was 52.5 % of HIV pol 589-597 at 100 µM. In addition, the “concentration of peptide that induces 20% of HLA-A2 expression” value in assay [5] was 3.76 µM. The “in vitro binding affinity (relative to HIV pol reference peptide)” value in assay [5] was 0.4 ratio to HIV pol 589-597.

For the molecule LQMGGFYLL [CD19-B7], the “mean relative fluorescence intensity” value in assay [4] was 6 % of HIV pol 589-597 at 100 µM; in assay [1] it was 31.8 % of HIV pol 589-597 at 100 µM; in assay [2], 4.8 % of HIV pol 589-597 at 100 µM; in assay [3] it was 4.5 % of HIV pol 589-597 at 100 µM. The “concentration of peptide that induces 20% of HLA-A2 expression” value in assay [5] is 49.6 µM. The “in vitro binding affinity (relative to HIV pol reference peptide)” value in assay [5] was 6.8 ratio to HIV pol 589-597.

For IALGGLLMI [MS4A1-H1], the results for the “mean relative fluorescence intensity” value in assay [4], in assay [2] and in assay [3] were 0 % of HIV pol 589-597 at 100 µM, 0.7 % of HIV pol 589-597 at 100 µM and 1.9 % of HIV pol 589-597 at 100 µM, respectively.

Take GMAFVPLLL (also called CD37-B11i) [CD37-B11]: the “mean relative fluorescence intensity” value in assay [4] is 0 % of HIV pol 589-597 at 100 µM; in assay [1] it was 57.8 % of HIV pol 589-597 at 100 µM; in assay [2], 1.6 % of HIV pol 589-597 at 100 µM; in assay [3] it was 48.9 % of HIV pol 589-597 at 100 µM. Also, the “concentration of peptide that induces 20% of HLA-A2 expression” value in assay [5] is 2.3 µM. Further, in assay [5], the “in vitro binding affinity (relative to HIV pol reference peptide)” value was 3 ratio to HIV pol 589-597.

As to LLFGAPALL (also called TNFRSF13-H1) [TNFRSF13C-H1], the “mean relative fluorescence intensity” value was 0 % of HIV pol 589-597 at 100 µM in assay [4], 92 % of HIV pol 589-597 at 100 µM in assay [1], 2 % of HIV pol 589-597 at 100 µM in assay [2] and 17 % of HIV pol 589-597 at 100 µM in assay [3]. Further, the “concentration of peptide that induces 20% of HLA-A2 expression” value in assay [5] came to 11.8 µM. Moreover, the “in vitro binding affinity (relative to HIV pol reference peptide)” value in assay [5] was 3 ratio to HIV pol 589-597.

Consider ILNSLSLLL [MS4A1-B41], for which, in assay [5], the “concentration of peptide that induces 20% of HLA-A2 expression” value is 2.45 µM and the “in vitro binding affinity (relative to HIV pol reference peptide)” value is 0.3 ratio to HIV pol 589-597.

With TLAYLIFCL [CD19-H6], the “mean relative fluorescence intensity” value is 0 % of HIV pol 589-597 at 100 µM in assay [4], 4.1 % of HIV pol 589-597 at 100 µM in assay [2] and 39.6 % of HIV pol 589-597 at 100 µM in assay [3]. In addition, the “concentration of peptide that induces 20% of HLA-A2 expression” value in assay [5] turned out to be 4.98 µM. Further, in assay [5], the “in vitro binding affinity (relative to HIV pol reference peptide)” value was 0.5 ratio to HIV pol 589-597.

Consider LMFGAPALV [TNFRSF13C-B1], for which the “mean relative fluorescence intensity” value in assay [4] was 1 % of HIV pol 589-597 at 100 µM; in assay [1] it was 90 % of HIV pol 589-597 at 100 µM; in assay [2], 7 % of HIV pol 589-597 at 100 µM; in assay [3] it was 37 % of HIV pol 589-597 at 100 µM. Also, the “concentration of peptide that induces 20% of HLA-A2 expression” value in assay [5] is 4.35 µM. Further, in assay [5], the “in vitro binding affinity (relative to HIV pol reference peptide)” value is 1.1 ratio to HIV pol 589-597.

Regarding TLLFLTPML [CD19-B2], the “mean relative fluorescence intensity” value in assay [4] is 12 % of HIV pol 589-597 at 100 µM; in assay [2], 41 % of HIV pol 589-597 at 100 µM; in assay [3], 114 % of HIV pol 589-597 at 100 µM. Moreover, the “concentration of peptide that induces 20% of HLA-A2 expression” value in assay [5] was determined as 0.38 µM. For the same molecule, the “in vitro binding affinity (relative to HIV pol reference peptide)” value in assay [5] is 1 ratio to HIV pol 589-597.

Take FLAFVPLQL (also called CD37-B1i) [CD37-B1]: the “mean relative fluorescence intensity” value in assay [4] was 5 % of HIV pol 589-597 at 100 µM; in assay [1] it was 157 % of HIV pol 589-597 at 100 µM; in assay [2], 35 % of HIV pol 589-597 at 100 µM; in assay [3], 106 % of HIV pol 589-597 at 100 µM. In addition, in assay [5], the “concentration of peptide that induces 20% of HLA-A2 expression” value turned out to be 0.65 µM. For the same molecule, in assay [5], the “in vitro binding affinity (relative to HIV pol reference peptide)” value was 1.6 ratio to HIV pol 589-597.

The values are drawn from patent US20220323561A1 (ENTEROME S A, published 2022).
